# ± gives the standard deviation of the averaged measurements.
# System: ATP
# Experiment: switch fluorescence ratio, 500 uM ATP over buffer (Cy3 cluster intensity, sum of 5 cycles each) (fold (ratio)); higher = stronger signal-on switching upon ATP binding; sequences stand for … in TCGTCGGCAGCGTCAGATGTGTATAAGAGACAGTTTTTTTTTTTTTTTTTTTTTTTTT…TC
# Details: aptamer strand: ATP DNA aptamer (quencher-CACCTGGGGGAGTATTGCGGAGGAAGG + anchor), 100 nM annealed; ATP concentration: 500 uM
# Outline: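 After annealing to 100 nM quencher-labelled ATP aptamer, Cy3-labelled switching-strand clusters on a modified Illumina MiSeq flow-cell were imaged in selection buffer. A second image followed after 15 min with 500 uM ATP at 22 °C, and five such buffer/ATP cycles were done, each separated by NaOH stripping and re-annealing. The fluorescence ratio, averaged per switch-domain sequence, is summed target-cycle over summed buffer-cycle Cy3 intensity per cluster, with clusters outside 100-1000 RFU excluded.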
# 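Further: ATP exposure 15 min at 22 °C before imaging.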
row,Sequence,switch fluorescence ratio
1,TTGCACTGAC,1.53 ± 0.21
2,TTGCAGCTCA,1.78 ± 1.1
3,TTGCAGTAGC,1.05 ± 0.033
4,TTGCATAGTG,0.9536 ± 0.0026
5,TTGCATGTTG,0.9886 ± 0.0033
6,TTGCATGTTT,1.15 ± 0.3
7,TTGCATTAAG,0.9963 ± 0.0082
8,TTGCATTAGG,1.28 ± 0.31
9,TTGCATTATA,1.07 ± 0.054
10,TTGCATTGGA,0.9885 ± 0.0079
11,TTGCATTTTC,1.09 ± 0.11
12,TTGCATTTTG,0.985 ± 0.025
13,TTGCCAATCC,1.04 ± 0.04
14,TTGCCAGATT,0.994 ± 0.037
15,TTGCCCCGTA,1.02 ± 0.023
16,TTGCCCCTTA,1.03 ± 0.045
17,TTGCCGGGCA,0.987 ± 0.032
18,TTGCCTCGGG,1.04 ± 0.037
19,TTGCCTGGGG,1.02 ± 0.013
20,TTGCGAGAAC,1.17 ± 0.18
21,TTGCGATGGT,1.02 ± 0.012
22,TTGCGGAGGG,1.01 ± 0.069
23,TTGCGGGGCC,1.04 ± 0.051
24,TTGCGTATGG,1.01 ± 0.021
25,TTGCTAAAAG,1.02 ± 0.028
26,TTGCTAGCCT,1.01 ± 0.021

row,Sequence,switch fluorescence ratio
1,TTGCTAGTAT,1.0001 ± 0.00075
2,TTGCTATGTT,1.01 ± 0.037
3,TTGCTCACTT,1.04 ± 0.029
4,TTGCTCTTGG,0.956 ± 0.0095
5,TTGCTGAGCT,0.9984 ± 0.0076
6,TTGCTGATTT,0.992 ± 0.059
7,TTGCTGGGCC,1.02 ± 0.088
8,TTGCTTAGTT,1.002 ± 0.0071
9,TTGCTTATCG,1.021 ± 0.0047
10,TTGCTTATGG,1.01 ± 0.015
11,TTGCTTCGGC,0.976 ± 0.04
12,TTGCTTGGTG,1.03 ± 0.017
13,TTGCTTGTTG,1.02 ± 0.034
14,TTGCTTTTCG,0.974 ± 0.015
15,TTGCTTTTTG,0.984 ± 0.064
16,TTGGAAACCA,1.02 ± 0.015
17,TTGGAAACGT,1.06 ± 0.067
18,TTGGAAAGCA,1.03 ± 0.027
19,TTGGAAATTT,1.05 ± 0.17
20,TTGGAAGATT,0.9881 ± 0.003
21,TTGGAATGGG,1 ± 0.026
22,TTGGACAGTT,0.99 ± 0.04
23,TTGGACGGGG,1.07 ± 0.035
24,TTGGACGTGT,0.946 ± 0.027
25,TTGGACTCGG,0.997 ± 0.034
26,TTGGAGAGGT,1.02 ± 0.019

row,Sequence,switch fluorescence ratio
1,TTGGAGGCCC,0.9801 ± 0.0029
2,TTGGAGGGG,0.988 ± 0.025
3,TTGGAGGTAG,1 ± 0.037
4,TTGGAGGTTT,1.17 ± 0.24
5,TTGGATACGG,0.995 ± 0.031
6,TTGGATCTTA,0.972 ± 0.02
7,TTGGATTAGT,0.982 ± 0.011
8,TTGGATTCCC,0.977 ± 0.064
9,TTGGATTCGG,0.972 ± 0.017
10,TTGGATTTTG,0.978 ± 0.043
11,TTGGCAGTG,0.993 ± 0.019
12,TTGGCATAAG,1.16 ± 0.28
13,TTGGCATGTT,1.005 ± 0.0093
14,TTGGCCCGGC,1.52 ± 0.72
15,TTGGCCGTGT,1.02 ± 0.028
16,TTGGCCTTCC,2.19 ± 0.74
17,TTGGCGACAT,1.02 ± 0.021
18,TTGGCGAGTT,1.007 ± 0.002
19,TTGGCGGACG,0.984 ± 0.026
20,TTGGCGGAGT,1.01 ± 0.032
21,TTGGCGGCTA,0.982 ± 0.024
22,TTGGCGTATC,0.946 ± 0.041
23,TTGGCGTTCG,1.01 ± 0.025
24,TTGGCTGCGG,0.95 ± 0.021
25,TTGGCTGGTG,1.03 ± 0.04
26,TTGGCTTAAA,1.007 ± 0.0097

row,Sequence,switch fluorescence ratio
1,TTGGCTTTGT,0.985 ± 0.022
2,TTGGCTTTTA,0.99017 ± 0.00047
3,TTGGGAAAAA,1.14 ± 0.23
4,TTGGGAAAGA,1.21 ± 0.34
5,TTGGGAACGG,1.03 ± 0.034
6,TTGGGAAGGA,1.02 ± 0.042
7,TTGGGACAAT,1.04 ± 0.044
8,TTGGGACTTT,1.03 ± 0.022
9,TTGGGAGAAG,0.993 ± 0.051
10,TTGGGATGGG,0.998 ± 0.015
11,TTGGGCAAAA,0.985 ± 0.065
12,TTGGGCAGGA,1.06 ± 0.047
13,TTGGGCAGTG,1.02 ± 0.045
14,TTGGGCCAGG,1.14 ± 0.12
15,TTGGGCCCTG,1.06 ± 0.014
16,TTGGGCGAGG,1.025 ± 0.0075
17,TTGGGCTCTG,0.988 ± 0.018
18,TTGGGCTTAT,1.001 ± 0.0066
19,TTGGGGAAAT,1.31 ± 0.68
20,TTGGGGAATG,0.999 ± 0.049
21,TTGGGGAGTT,1.01 ± 0.044
22,TTGGGGATCG,0.983 ± 0.056
23,TTGGGGCCAA,1.01 ± 0.051
24,TTGGGGCCCT,1.01 ± 0.029
25,TTGGGGCCGA,0.956 ± 0.017
26,TTGGGGCGCG,0.989 ± 0.051

row,Sequence,switch fluorescence ratio
1,TTGGGGCTGA,0.993 ± 0.037
2,TTGGGGGAGC,0.976 ± 0.018
3,TTGGGGGCCA,0.9898 ± 0.0041
4,TTGGGGGCGG,1.01 ± 0.015
5,TTGGGGGCTC,0.998 ± 0.024
6,TTGGGGGGAC,1.03 ± 0.029
7,TTGGGGGTT,1.03 ± 0.017
8,TTGGGGTAG,1.02 ± 0.033
9,TTGGGGTAGG,1.01 ± 0.032
10,TTGGGGTCCT,0.984 ± 0.023
11,TTGGGGTTAG,0.988 ± 0.017
12,TTGGGGTTAT,0.975 ± 0.032
13,TTGGGGTTGC,1.01 ± 0.034
14,TTGGGTAAGA,1.02 ± 0.028
15,TTGGGTATTA,0.9656 ± 0.0024
16,TTGGGTATTT,0.986 ± 0.021
17,TTGGGTCCGA,1.01 ± 0.049
18,TTGGGTGAAG,1.01 ± 0.025
19,TTGGGTGCGG,1 ± 0.066
20,TTGGGTGGAG,0.991 ± 0.023
21,TTGGGTGGGT,1 ± 0.038
22,TTGGGTGGTA,0.988 ± 0.028
23,TTGGGTGTAG,1.04 ± 0.025
24,TTGGGTTTCT,0.97996 ± 0.00043
25,TTGGGTTTG,0.964 ± 0.011
26,TTGGGTTTTT,1.04 ± 0.1

row,Sequence,switch fluorescence ratio
1,TTGGTAATAG,1.03 ± 0.015
2,TTGGTAATGT,1.03 ± 0.016
3,TTGGTACTTA,0.995 ± 0.013
4,TTGGTACTTT,0.9841 ± 0.0051
5,TTGGTAGCTA,0.9889 ± 0.0098
6,TTGGTAGGGC,0.97013 ± 0.0006
7,TTGGTAGGGG,1.03 ± 0.077
8,TTGGTAGTCA,0.992 ± 0.037
9,TTGGTATAGT,0.9999 ± 0.0047
10,TTGGTATGGG,1.03 ± 0.044
11,TTGGTCAAAA,1.022 ± 0.0089
12,TTGGTCCGGT,0.988 ± 0.018
13,TTGGTCCGTC,1.01 ± 0.047
14,TTGGTCGGGG,0.991 ± 0.023
15,TTGGTCGGTC,0.985 ± 0.036
16,TTGGTCTAGA,1.01 ± 0.054
17,TTGGTCTTGT,1.001 ± 0.006
18,TTGGTGAAGG,1.01 ± 0.023
19,TTGGTGAGTT,0.981 ± 0.029
20,TTGGTGCCCG,1.01 ± 0.037
21,TTGGTGGATC,1.03 ± 0.03
22,TTGGTGGTTT,0.988 ± 0.027
23,TTGGTGTACT,1.01 ± 0.019
